Test results taken from publication PMC9119546, “MDM2 E3 ligase activity is essential for p53 regulation and cell cycle integrity” (PLoS Genetics, 2022).

What was measured:
[1] = molecular target: T1, HA-HDM2L468A (human, recombinant) (human, UniProt Q00987 1-491, L468A); experiment: pull-down; 500 ng FLAG-MDM4 with 500 ng HA-HDM2 or HA-HDM2L468A in NP40 buffer (20 mM Tris-HCl pH 8.0, 150 mM NaCl, 0.5% NP40); anti-FLAG M2 beads, 1 hour at room temperature; eluted with 3xFLAG peptide; blot for HA; conditions: both partners purified
T1 construct: human MDM2 (HDM2) with L468A; also called HA-HDM2LA; mutant HDM2 (HA-HDM2L468A); source: insect cell expression, purified as described previously [13]; not shown: HA, N-terminal, kept
T1 sequence (Q00987 whole entry L468A): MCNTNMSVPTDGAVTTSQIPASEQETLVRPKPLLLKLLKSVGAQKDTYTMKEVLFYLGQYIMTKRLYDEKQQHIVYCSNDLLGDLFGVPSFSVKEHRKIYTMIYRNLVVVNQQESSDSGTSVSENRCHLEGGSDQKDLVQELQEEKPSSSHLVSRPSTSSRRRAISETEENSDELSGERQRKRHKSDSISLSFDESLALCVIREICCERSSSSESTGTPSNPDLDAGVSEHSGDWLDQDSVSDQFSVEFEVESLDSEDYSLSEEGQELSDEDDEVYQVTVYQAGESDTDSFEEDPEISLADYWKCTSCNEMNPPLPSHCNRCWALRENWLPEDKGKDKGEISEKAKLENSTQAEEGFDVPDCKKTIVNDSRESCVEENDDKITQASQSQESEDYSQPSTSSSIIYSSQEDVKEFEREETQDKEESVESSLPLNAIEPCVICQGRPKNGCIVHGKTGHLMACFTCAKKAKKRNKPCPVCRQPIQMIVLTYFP

[2] = molecular target: T2, HA-HDM2 (human, recombinant, wild type) (human, UniProt Q00987 1-491); experiment: as above; conditions: both partners purified
T2 construct: human MDM2 (HDM2); also called HA-HDM2 (WT); HA-MDM2 (human); source: insect cell expression, purified as described previously [13]; not shown: HA, N-terminal, kept
T2 sequence (Q00987 whole entry): as the sequence (Q00987 whole entry L468A) above, with A468L counted along it

- binding result [1]: binds
- binding result [2]: binds
B1: human recombinant FLAG-MDM4 (natural protein, UniProt O15151 1-490, looked up)
chain: MTSFSTSAQCSTSDSACRISPGQINQVRPKLPLLKILHAAGAQGEMFTVKEVMHYLGQYIMVKQLYDQQEQHMVYCGGDLLGELLGRQSFSVKDPSPLYDMLRKNLVTLATATTDAAQTLALAQDHSMDIPSQDQLKQSAEESSTSRKRTTEDDIPTLPTSEHKCIHSREDEDLIENLAQDETSRLDLGFEEWDVAGLPWWFLGNLRSNYTPRSNGSTDLQTNQDVGTAIVSDTTDDLWFLNESVSEQLGVGIKVEAADTEQTSEEVGKVSDKKVIEVGKNDDLEDSKSLSDDTDVEVTSEDEWQCTECKKFNSPSKRYCFRCWALRKDWYSDCSKLTHSLSTSDITAIPEKENEGNDVPDCRRTISAPVVRPKDAYIKKENSKLFDPCNSVEFLDLAHSSESQETISSMGEQLDNLSEQRTDTENMEDCQNLLKPCSLCEKRPRDGNIIHGRTGHLVTCFHCARRLKKAGASCPICKKEIQLVIKVFIA
notes: human MDM4 (HDM4); also called FLAG-M4; HDM4; source: insect cell expression, purified as described previously [13]; not shown: FLAG, N-terminal, kept
